The record followed here is PMC5740061 (Nature Communications, 2017).

To fix the notation:
B1: SDGF-TB1G1 (TB1G1 displayed on 293F cells) [designed binder] / Biotinylated His-Avi-TEAD1(194–411) [modified: biotin (BirA-500 kit); biotin (BirA-500 kit)] [not stated] (parent complex)
chain 1: PDEYIERAKECCKKGDIQCCLRYFEESGDPNVMLICLFCP
chain 2: RSIGTTKLRLVEFSAFLEQQRDPDSYNKHLFVHIGHANHSYSDPLLESVDIRQIYDKFPEKKGGLKELFGKGPQNAFFLVKFWADLNCNIQDDAGAFYGVTSQYESSENMTVTCSTKVCSFGKQVVEKVETEYARFENGRFVYRINRSPMCEYMINFIHKLKHLPEKYMMNSVLENFTILLVVTNRDTQETLLCMACVFEVSNSEHGAQHHIYRLVKD

In one assay the parent is B1. Kind of assay: mammalian (293F) surface display of a site-saturation mutagenesis library (every non-Cys single substitution), FACS sorting on biotinylated TEAD1 YBD, two sorting rounds, Illumina sequencing with perfect-match mapping; 20 nM biotinylated TEAD, monovalent 2-step stain (TEAD alone 30 min at 4 °C, dilute, pellet, then 20 nM streptavidin-Alexa Fluor 647), flow sorting on a BD Aria.
On to chain 1 I5M, for which the enrichment is -1.87 log2 (fold change of variant abundance after two TEAD sorts vs input, normalised to TB1G1). Still for that read-out and setting: in the case of chain 1 I5L it was -0.381 log2 (fold change of variant abundance after two TEAD sorts vs input, normalised to TB1G1). In the case of chain 1 I5G, the enrichment is -3.97 log2 (fold change of variant abundance after two TEAD sorts vs input, normalised to TB1G1).

For the variant chain 1 I5F, the enrichment was -8.36 log2 (fold change of variant abundance after two TEAD sorts vs input, normalised to TB1G1). The same measure, in the same setting: then chain 1 I5W, with -7.46 log2 (fold change of variant abundance after two TEAD sorts vs input, normalised to TB1G1); and chain 1 I5V, with -0.274 log2 (fold change of variant abundance after two TEAD sorts vs input, normalised to TB1G1); and chain 1 I5R, with -3.27 log2 (fold change of variant abundance after two TEAD sorts vs input, normalised to TB1G1). The same measure, in the same setting: then chain 1 I5N, with -1.34 log2 (fold change of variant abundance after two TEAD sorts vs input, normalised to TB1G1); and chain 1 E3R, with -1.81 log2 (fold change of variant abundance after two TEAD sorts vs input, normalised to TB1G1). Same read-out and setting: in the case of chain 1 E3G it was -0.623 log2 (fold change of variant abundance after two TEAD sorts vs input, normalised to TB1G1); in that of chain 1 E3V, -1.39 log2 (fold change of variant abundance after two TEAD sorts vs input, normalised to TB1G1). For chain 1 E3A, the enrichment is -2.02 log2 (fold change of variant abundance after two TEAD sorts vs input, normalised to TB1G1). Still for that read-out and setting: then chain 1 E3D, with 0.801 log2 (fold change of variant abundance after two TEAD sorts vs input, normalised to TB1G1); and chain 1 E3H, with -0.307 log2 (fold change of variant abundance after two TEAD sorts vs input, normalised to TB1G1); and chain 1 Y4M, with -0.684 log2 (fold change of variant abundance after two TEAD sorts vs input, normalised to TB1G1). The same measure, in the same setting: then chain 1 Y4E, with -6.52 log2 (fold change of variant abundance after two TEAD sorts vs input, normalised to TB1G1).

On to chain 1 Y4N, for which the enrichment is 0.0419 log2 (fold change of variant abundance after two TEAD sorts vs input, normalised to TB1G1). Regarding chain 1 Y4T, the enrichment was -0.869 log2 (fold change of variant abundance after two TEAD sorts vs input, normalised to TB1G1). For chain 1 Y4I, the enrichment was -0.405 log2 (fold change of variant abundance after two TEAD sorts vs input, normalised to TB1G1). The same measure, in the same setting: then chain 1 Y4H, with -1.9 log2 (fold change of variant abundance after two TEAD sorts vs input, normalised to TB1G1); and chain 1 Y4F, with 0.668 log2 (fold change of variant abundance after two TEAD sorts vs input, normalised to TB1G1). Still for that read-out and setting: in the case of chain 1 Y4A it was 0.259 log2 (fold change of variant abundance after two TEAD sorts vs input, normalised to TB1G1); in that of chain 1 Y4S, -0.738 log2 (fold change of variant abundance after two TEAD sorts vs input, normalised to TB1G1); in that of chain 1 R7V, -2.31 log2 (fold change of variant abundance after two TEAD sorts vs input, normalised to TB1G1). For the variant chain 1 R7F, the enrichment is -1.04 log2 (fold change of variant abundance after two TEAD sorts vs input, normalised to TB1G1). The same measure, in the same setting: then chain 1 R7K, with 0.473 log2 (fold change of variant abundance after two TEAD sorts vs input, normalised to TB1G1); and chain 1 R7D, with -2.25 log2 (fold change of variant abundance after two TEAD sorts vs input, normalised to TB1G1); and chain 1 R7S, with 0.311 log2 (fold change of variant abundance after two TEAD sorts vs input, normalised to TB1G1).

Regarding chain 1 R7Q, the enrichment was -0.484 log2 (fold change of variant abundance after two TEAD sorts vs input, normalised to TB1G1).

As for chain 1 R7G, the enrichment is 1.31 log2 (fold change of variant abundance after two TEAD sorts vs input, normalised to TB1G1). Same read-out and setting: then chain 1 R7H, with -0.322 log2 (fold change of variant abundance after two TEAD sorts vs input, normalised to TB1G1); and chain 1 R7N, with 0.343 log2 (fold change of variant abundance after two TEAD sorts vs input, normalised to TB1G1). With chain 1 R7Y, the enrichment was -1.01 log2 (fold change of variant abundance after two TEAD sorts vs input, normalised to TB1G1). Still for that read-out and setting: then chain 1 R7P, with -2.49 log2 (fold change of variant abundance after two TEAD sorts vs input, normalised to TB1G1). On the same count and under the same terms, in the case of chain 1 D2S it was -1.01 log2 (fold change of variant abundance after two TEAD sorts vs input, normalised to TB1G1); in that of chain 1 D2Y, -1.63 log2 (fold change of variant abundance after two TEAD sorts vs input, normalised to TB1G1); in that of chain 1 D2Q, -0.201 log2 (fold change of variant abundance after two TEAD sorts vs input, normalised to TB1G1).

In the case of chain 1 D2V, the enrichment was -2.34 log2 (fold change of variant abundance after two TEAD sorts vs input, normalised to TB1G1). Same read-out and setting: in the case of chain 1 D2R it was -7.12 log2 (fold change of variant abundance after two TEAD sorts vs input, normalised to TB1G1); in that of chain 1 D2P, -2.11 log2 (fold change of variant abundance after two TEAD sorts vs input, normalised to TB1G1); in that of chain 1 D2L, -3.53 log2 (fold change of variant abundance after two TEAD sorts vs input, normalised to TB1G1). In the case of chain 1 D2E, the enrichment is 1.16 log2 (fold change of variant abundance after two TEAD sorts vs input, normalised to TB1G1).

chain 1 A8R: the enrichment is -5.84 log2 (fold change of variant abundance after two TEAD sorts vs input, normalised to TB1G1).

Regarding chain 1 A8S, the enrichment is -2.79 log2 (fold change of variant abundance after two TEAD sorts vs input, normalised to TB1G1). Still for that read-out and setting: then chain 1 A8K, with -4.73 log2 (fold change of variant abundance after two TEAD sorts vs input, normalised to TB1G1); and chain 1 A8G, with -4.11 log2 (fold change of variant abundance after two TEAD sorts vs input, normalised to TB1G1). The same measure, in the same setting: then chain 1 A8Q, with -6 log2 (fold change of variant abundance after two TEAD sorts vs input, normalised to TB1G1); and chain 1 M33I, with -3.16 log2 (fold change of variant abundance after two TEAD sorts vs input, normalised to TB1G1). Still for that read-out and setting: then chain 1 P1E, with 1.12 log2 (fold change of variant abundance after two TEAD sorts vs input, normalised to TB1G1); and chain 1 P1F, with -1.3 log2 (fold change of variant abundance after two TEAD sorts vs input, normalised to TB1G1); and chain 1 P1K, with -0.294 log2 (fold change of variant abundance after two TEAD sorts vs input, normalised to TB1G1). Turning to chain 1 P1Q, the enrichment is -0.836 log2 (fold change of variant abundance after two TEAD sorts vs input, normalised to TB1G1). Consider chain 1 P1I, for which the enrichment was -2.27 log2 (fold change of variant abundance after two TEAD sorts vs input, normalised to TB1G1). For the variant chain 1 P1H, the enrichment is -0.884 log2 (fold change of variant abundance after two TEAD sorts vs input, normalised to TB1G1). Same read-out and setting: then chain 1 K9W, with -4.41 log2 (fold change of variant abundance after two TEAD sorts vs input, normalised to TB1G1); and chain 1 K9Q, with 1.1 log2 (fold change of variant abundance after two TEAD sorts vs input, normalised to TB1G1); and chain 1 K9V, with -8.88 log2 (fold change of variant abundance after two TEAD sorts vs input, normalised to TB1G1). With chain 1 K9F, the enrichment was -3.52 log2 (fold change of variant abundance after two TEAD sorts vs input, normalised to TB1G1). On the same count and under the same terms, then chain 1 K9N, with 3.31 log2 (fold change of variant abundance after two TEAD sorts vs input, normalised to TB1G1). chain 1 K9I: the enrichment was -3.03 log2 (fold change of variant abundance after two TEAD sorts vs input, normalised to TB1G1). Consider chain 1 K9S, for which the enrichment is -0.907 log2 (fold change of variant abundance after two TEAD sorts vs input, normalised to TB1G1). With chain 1 K9R, the enrichment is -1.3 log2 (fold change of variant abundance after two TEAD sorts vs input, normalised to TB1G1). Consider chain 1 K9E, for which the enrichment is 3.95 log2 (fold change of variant abundance after two TEAD sorts vs input, normalised to TB1G1). Same read-out and setting: then chain 1 K9T, with 2.68 log2 (fold change of variant abundance after two TEAD sorts vs input, normalised to TB1G1).

For the variant chain 1 E6T, the enrichment is -0.921 log2 (fold change of variant abundance after two TEAD sorts vs input, normalised to TB1G1).

As for chain 1 E6S, the enrichment is -1.09 log2 (fold change of variant abundance after two TEAD sorts vs input, normalised to TB1G1). Take chain 1 E6A: the enrichment is -0.676 log2 (fold change of variant abundance after two TEAD sorts vs input, normalised to TB1G1). The same measure, in the same setting: then chain 1 E6M, with -2.04 log2 (fold change of variant abundance after two TEAD sorts vs input, normalised to TB1G1); and chain 1 E6L, with -0.404 log2 (fold change of variant abundance after two TEAD sorts vs input, normalised to TB1G1). Same read-out and setting: then chain 1 E6I, with -1.56 log2 (fold change of variant abundance after two TEAD sorts vs input, normalised to TB1G1); and chain 1 E6V, with -1.55 log2 (fold change of variant abundance after two TEAD sorts vs input, normalised to TB1G1); and chain 1 E6Y, with -2.33 log2 (fold change of variant abundance after two TEAD sorts vs input, normalised to TB1G1).

In a further assay the parent is B1.
Assay: not given
Regarding chain 1 C11S, chain 1 C12S, chain 1 C19S, chain 1 C20S, chain 1 C36S, chain 1 C39S, the ratio to parent was roughly 0.01. Same read-out and setting: then chain 1 M33A, with roughly 0.01. The same measure, in the same setting: then chain 1 E25A, with roughly 0.07.
